Test results as given in IntAct's records for PubMed 36126419.

B1: 3-mercaptopyruvate sulfurtransferase (Homo sapiens), P25325 (parent)
chain: MASPQLCRALVSAQWVAEALRAPRAGQPLQLLDASWYLPKLGRDARREFEERHIPGAAFFDIDQCSDRTSPYDHMLPGAEHFAEYAGRLGVGAATHVVIYDASDQGLYSAPRVWWMFRAFGHHAVSLLDGGLRHWLRQNLPLSSGKSQPAPAEFRAQLDPAFIKTYEDIKENLESRRFQVVDSRATGRFRGTEPEPRDGIEPGHIPGTVNIPFTDFLSQEGLEKSPEEIRHLFQEKKVDLSKPLVATCGSGVTACHVALGAYLCGKPDVPIYDGSWVEWYMRARPEDVISEGRGKTH

Variants of: B1
Conditions: with akt1_human AKT1, P31749
akt1_human AKT1, P31749, sequence (P31749 whole entry): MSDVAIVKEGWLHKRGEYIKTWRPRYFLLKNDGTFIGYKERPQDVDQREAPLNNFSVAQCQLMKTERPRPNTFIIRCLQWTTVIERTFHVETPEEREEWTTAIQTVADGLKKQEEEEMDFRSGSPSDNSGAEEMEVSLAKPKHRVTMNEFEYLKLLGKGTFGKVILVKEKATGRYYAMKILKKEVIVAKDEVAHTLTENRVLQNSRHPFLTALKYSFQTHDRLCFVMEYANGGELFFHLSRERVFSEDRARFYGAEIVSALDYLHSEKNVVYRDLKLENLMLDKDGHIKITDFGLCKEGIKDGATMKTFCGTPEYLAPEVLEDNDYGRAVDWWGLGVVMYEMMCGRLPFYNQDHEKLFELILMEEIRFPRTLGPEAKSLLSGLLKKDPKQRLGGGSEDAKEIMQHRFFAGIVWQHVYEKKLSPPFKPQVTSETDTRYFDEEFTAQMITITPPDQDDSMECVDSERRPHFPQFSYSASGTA

| effect of a mutation on the interaction | Variant |
| --- | --- |
| disrupting interaction strength | C248A |
